Reference: patent US20240150417A1

Target: human transferrin receptor (human) (UniProt P02786)
Assay: MST (Monolith NT.115), dye-labelled protein, receptor titrated

human transferrin receptor (human), sequence (P02786 89-760 limits assumed): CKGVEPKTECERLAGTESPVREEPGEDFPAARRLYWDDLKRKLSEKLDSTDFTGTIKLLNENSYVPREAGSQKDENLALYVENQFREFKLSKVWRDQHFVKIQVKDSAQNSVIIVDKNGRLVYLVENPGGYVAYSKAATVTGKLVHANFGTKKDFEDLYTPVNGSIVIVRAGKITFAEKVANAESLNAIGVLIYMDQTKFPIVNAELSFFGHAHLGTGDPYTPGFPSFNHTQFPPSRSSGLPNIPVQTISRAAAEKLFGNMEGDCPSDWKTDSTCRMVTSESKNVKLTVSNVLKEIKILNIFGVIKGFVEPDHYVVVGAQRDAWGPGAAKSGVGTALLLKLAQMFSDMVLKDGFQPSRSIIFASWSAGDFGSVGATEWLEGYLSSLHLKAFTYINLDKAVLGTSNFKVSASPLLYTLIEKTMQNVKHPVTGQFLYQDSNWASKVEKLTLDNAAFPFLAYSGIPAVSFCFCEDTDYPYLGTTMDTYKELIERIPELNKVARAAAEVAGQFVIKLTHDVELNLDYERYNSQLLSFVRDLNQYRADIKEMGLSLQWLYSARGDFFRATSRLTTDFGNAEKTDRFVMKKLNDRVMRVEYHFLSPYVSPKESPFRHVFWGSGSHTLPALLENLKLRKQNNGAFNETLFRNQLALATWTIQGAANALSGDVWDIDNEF

Substance | Kd
AB-AH1-huHF (from UniProt P02794 1-183) | 10.9 nM
AB-gp100-huHF (from UniProt P02794 1-183) | 29.7 nM
BC-AH1-huHF (from UniProt P02794 1-183) | 107 nM
CD-AH1-huHF (from UniProt P02794 1-183) | 3.45 nM
CD-gp100-huHF (from UniProt P02794 1-183) | 4.89 nM
DE-AH1-huHF (from UniProt P02794 1-183) | 6.11 nM
